Results taken from paper PMC2526197.

Key:
[1] = molecular target: Evasin-3 (HEK) (Rhipicephalus sanguineus) (UniProt P0C8E8); test: SPR
Chain of Evasin-3 (HEK) (Rhipicephalus sanguineus) (P0C8E8 21-86): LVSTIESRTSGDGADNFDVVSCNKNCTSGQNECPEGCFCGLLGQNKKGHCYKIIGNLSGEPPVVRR

Chain of Evasin-3 (E. coli) (P0C8E8 21-86): as above

| Substance | IC50 of inhibition of CXCL8-induced chemotaxis of neutrophils in vitro (CXCL8 (human)) [nM] | Kd [1] [nM] |
| --- | --- | --- |
| Evasin-3 (E. coli) (from UniProt P0C8E8 21-86) (natural protein) | 3.35 | – |
| CXCL8 (ligand) | – | 0.7 |
